Source: PMC12714728 (2025)
Positions of bridges follow the written chain, without caps; N, C: chain ends. Non-standard residues stand in square brackets, D forms with d. No end group written: not given here.

Columns and labels:
Test in all cases: SPR
[1] = target: T1, H1N1 A/California/07/2009 hemagglutinin ectodomain, biotinylated HA0 (influenza A virus A/California/07/2009 …, biotin on the BirA site)
[2] = target: T2, H5N1 A/Vietnam/1203/2004 hemagglutinin ectodomain, biotinylated HA0 (influenza A virus A/Vietnam/1203/2004 …)
[3] = target: T3, H1N1 A/New Caledonia/20/1999 hemagglutinin ectodomain, biotinylated HA0 (influenza A virus A/New …, biotin on the BirA site)
[4] = target: T1, H1N1 A/California/07/2009 hemagglutinin …; remark: listed apart in the source
[5] = target: T2, H5N1 A/Vietnam/1203/2004 hemagglutinin …; remark: listed apart in the source
[6] = target: T3, H1N1 A/New Caledonia/20/1999 …; remark: listed apart in the source

| Binder | Kd [1] | Kd [2] | Kd [3] | koff [4] | koff [5] | koff [6] |
| --- | --- | --- | --- | --- | --- | --- |
| PPLYEDPLGVAGGMG (also: one Pro of the Pro-Pro template is D, which not given here, cyclic peptide, ring closure not given here) [cyclic peptide CP3] | 2390 nM | 2040 nM | 1180 nM | 1.07 s⁻¹ | 0.76 s⁻¹ | 0.45 s⁻¹ |
| CYRDPLGVAGEMC (also: cyclic peptide, ring closure not given here) [cyclic peptide CP13] | 12000 nM | 8910 nM | 32000 nM | – | – | – |
| CLYRDPLGVAGGMGC (disulfide 1-15) [cyclic peptide CP8] | 330 nM | 320 nM | 850 nM | 0.1 s⁻¹ | 0.98 s⁻¹ | 0.23 s⁻¹ |
| [dP]PVSLYEDPLGVAGGMGVY (also: cyclic peptide, ring closure not given here) [cyclic peptide CP1] | – | 1800 nM | 20 nM | 0.01 s⁻¹ | 0.14 s⁻¹ | 0.02 s⁻¹ |
| PGLYEDPLGVAGGMG (also: cyclic peptide, ring closure not given here) [cyclic peptide CP6] | 1910 nM | 3020 nM | 800 nM | 0.83 s⁻¹ | 0.95 s⁻¹ | 0.42 s⁻¹ |
| LYEDPLGVAGGMG (non-template-based cyclic peptide (direct head-to-tail cyclization)) [cyclic peptide CP14] | 1070 nM | 2740 nM | 640 nM | – | – | – |
| P[dP]SLYEDPLGVAGGMGV (also: cyclic peptide, ring closure not given here) [cyclic peptide CP2] | 7280 nM | – | 3080 nM | 3.48 s⁻¹ | – | 1.08 s⁻¹ |
| PGVSLYEDPLGVAGGMGVY (also: cyclic peptide, ring closure not given here) [cyclic peptide CP4] | 120 nM | 290 nM | 360 nM | 0.04 s⁻¹ | 0.32 s⁻¹ | 0.06 s⁻¹ |
